Earlier results as cited in paper PMC3740200 (Dalton transactions (Cambridge, England : 2003), 2012).
Where two headings read alike, the source gives them in different places.

Key:
[1] = ref [2]
[2] = ref [16]
[3] = 4 °C, ref [16]
[4] = ref [1]; for turnover number: 100 mM phosphate buffer pH 7, 25 °C

B1: WT DaCld: wild-type chlorite dismutase from Dechloromonas aromatica, heme-binding pentameric enzyme (protein, UniProt Q47CX0 32-282, looked up)
Chlorite dismutase: QQAMQPMQSMKIERGTILTQPGVFGVFTMFKLRPDWNKVPVAERKGAAEEVKKLIEKHKDNVLVDLYLTRGLETNSDFFFRINAYDLAKAQTFMREFRSTTVGKNADVFETLVGVTKPLNYISKDKSPGLNAGLSSATYSGPAPRYVIVIPVKKNAEWWNMSPEERLKEMEVHTTPTLAYLVNVKRKLYHSTGLDDTDFITYFETDDLTAFNNLMLSLAQVKENKFHVRWGSPTTLGTIHSPEDVIKALAD
first order kobs of second step (PAA-independent) ([1]; pH 6.0): 0.3 s⁻¹ | second order rate constant k, formation of Compound I with PAA ([1]; pH 6): 190000 M⁻¹ s⁻¹ | second order rate constant k, reaction with PAA ([1]; pH 8): 1.3e+06 M⁻¹ s⁻¹ | pKa of alkaline transition (5cHS to 6cLS) [2]: 8.9 | kcat ([3]; acidic form): 120 ± 5 × 10^2 s^-1 | kcat ([3]; alkaline form): 460 s⁻¹ | turnover number [4]: 1.7×10^4 ClO2^− ions/heme | turnover number ([4]; listed as WT): 17000 ClO2^− ions/heme | turnovers before irreversibly inactivating [4]: ~ 20,000 turnovers
